Experimental findings from patent publication US20080039419 are described below.

The target in data set [1] is T1, synthetic peptide representing the β1 integrin cytoplasmic domain, P05556.
T1 chain: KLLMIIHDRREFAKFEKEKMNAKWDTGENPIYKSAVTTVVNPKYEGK

For data set [2], the target named is T2, synthetic peptide representing the β3 integrin cytoplasmic domain, P05106.
T2 chain: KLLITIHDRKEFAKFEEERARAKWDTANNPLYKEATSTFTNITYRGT

B1: integrin linked kinase (ILK), full length (protein)
chain: MDDIFTQCREGNAVAVRLWLDNTENDLNQGDDHGFSPLHWACREGRSAVVEMLIMRGARINVMNRGDDTPLHLAASHGHRDIVQKLLQYKADINAVNEHGNVPLHYACFWGQDQVAEDLVANGALVSICNKYGEMPVDKAKAPLRELLRERAEKMGQNLNRIPYKDTFWKGTTRTRPRNGTLNKHSGIDFKQLNFLTKLNENHSGELWKGRWQGNDIVVKVLKVRDWSTRKSRDFNEECPRLRIFSHPNVLPVLGACQSPPAPHPTLITHWMPYGSLYNVLHEGTNFVVDQSQAVKFALDMARGMAFLHTLEPLIPRHALNSRSVMIDEDMTARISMADVKFSFQCPGRMYAPAWVAPEALQKKPEDTNRRSADMWSFAVLLWELVTREVPFADLSNMEIGMKVALEGLRPTIPPGISPHVCKLMKICMNEDPAKRPKFDMIVPILEKMQDK
Turning to B1, the “autophosphorylation of ILK in immune complex kinase assay” value in data set [1] is given as “The β1 peptide selectively inhibited autophosphorylation of ILK in these reactions”. Moreover, the “phosphorylation of the synthetic peptide in ILK immune complex kinase assay (91-3 immunoprecipitates of PC3 lysates)” value in data set [1] was “The β1 peptide was labeled on serine and threonine residues, with approximately equal stoichiometry”; in data set [2], “a similar peptide representing the β3 cytoplasmic domain was not detectably labeled by P59ILK”.

B2: GST-ILK^232 (GST fusion of ILK amino acid residues 132-451) (protein)
chain: YGEMPVDKAKAPLRELLRERAEKMGQNLNRIPYKDTFWKGTTRTRPRNGTLNKHSGIDFKQLNFLTKLNENHSGELWKGRWQGNDIVVKVLKVRDWSTRKSRDFNEECPRLRIFSHPNVLPVLGACQSPPAPHPTLITHWMPYGSLYNVLHEGTNFVVDQSQAVKFALDMARGMAFLHTLEPLIPRHALNSRSVMIDEDMTARISMADVKFSFQCPGRMYAPAWVAPEALQKKPEDTNRRSADMWSFAVLLWELVTREVPFADLSNMEIGMKVALEGLRPTIPPGISPHVCKLMKICMNEDPAKRPKFDMIVPILEKMQD
On to B2, for which the “phosphorylation of the synthetic peptide by recombinant kinase in vitro” value in data set [1] and in data set [2] was “The results demonstrating phosphorylation of synthetic β peptides by endogenous ILK are identical to those seen with recombinant GST-ILK^232” each time.
